Assay results: article PMC9774438 (2022)

Experiments:
[1] = target: T1, Hm-AMP8 (synthetic construct); experiment: Celestine Blue B chlorinating activity assay (varying H2O2, uncompetitive inhibition)
T1 chain: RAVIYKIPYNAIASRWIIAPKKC

[2] = target: T2, pept_1545 (synthetic construct); experiment: as above
T2 chain: FLIGKAIKRKFCLRSVWNA

[3] = target: T2, pept_1545; experiment: Celestine Blue B chlorinating activity assay (varying Cl-, competitive inhibition)
[4] = target: T1, Hm-AMP8; experiment: Celestine Blue B chlorinating activity assay (varying Cl-, uncompetitive inhibition)
[5] = target: T1, Hm-AMP8; experiment: Amplex Red peroxidase activity assay (varying Amplex Red, mixed inhibition)
[6] = target: T2, pept_1545; experiment: as above
[7] = target: T1, Hm-AMP8; experiment: Amplex Red peroxidase activity assay (varying H2O2, uncompetitive inhibition)
[8] = target: T2, pept_1545; experiment: as above

Ki [1]: 0.28 µM
Ki [2]: 10.8 µM
Ki [3]: 19.5 µM
Ki [4]: 0.42 µM
Ki [5]: 1.1 µM
Ki [6]: 48.3 µM
Ki [7]: 1.79 µM
Ki [8]: 52.8 µM
B1: Myeloperoxidase (protein)
chain: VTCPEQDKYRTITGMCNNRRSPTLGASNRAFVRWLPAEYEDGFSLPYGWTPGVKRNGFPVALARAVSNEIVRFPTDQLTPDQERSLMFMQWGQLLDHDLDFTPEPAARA
